The target of test [1] is OsOTUB1-cat (OsOTUB1 residues 74 to 324, catalytic domain) (Oryza sativa).
For test [2] the target is unchanged. Description: cross-linking; 20 µM DUB with 100 µM Ub-PA in gel filtration buffer (50 mM Tris-HCl pH 8, 150 mM NaCl, 2 mM DTT), 37 °C, samples at time points, SDS-PAGE, Coomassie. (In general: SEC sorts molecules by how far they enter the pores of the column.)

A value given as a limit tells only on which side of the number the result lay.

For the substance “Met1-diUb Q2H^prox (from UniProt P0CG48 1-76) (natural protein)”, the KM of OsOTUB1-cat for the variant, fold reduction of affinity against Met1-diUb WT (Michaelis-Menten kinetics by HPLC, two replicates) in test [1] is 1.45 to 1.58 fold.
Turning to “Met1-diUb Q2A^prox (from UniProt P0CG48 1-76) (natural protein)”, the KM of OsOTUB1-cat for the variant, fold reduction of affinity against Met1-diUb WT (Michaelis-Menten kinetics by HPLC, two replicates) in test [1] fell in the range of 3.65 to 4.3 fold.
Regarding “Met1-diUb Q2E^prox (from UniProt P0CG48 1-76) (natural protein)”, the KM of OsOTUB1-cat for the variant, fold reduction of affinity against Met1-diUb WT (Michaelis-Menten kinetics by HPLC, two replicates) in test [1] lay in the range of 4.2 to 6.23 fold.
C-terminally propargylated Ub (Ub-PA): the percent of Ub-PA crosslinked in 1 min in test [2] was over 90%.
As to “Met1-diUb Q2N^prox (from UniProt P0CG48 1-76) (natural protein)”, the KM of OsOTUB1-cat for the variant, fold reduction of affinity against Met1-diUb WT (Michaelis-Menten kinetics by HPLC, two replicates) in test [1] lay within 1.52 to 1.91 fold.

The values are drawn from article PMC9363410.
